# Experimental data from the supplement of paper PMC10567573.
# B1: SMOC2 (parent)
# chain: QKPLCASDGRTFLSRCEFQRAKCK
# Variants of: B1
# Assay: protein stability index of a GFP-peptide fusion (GPS, HEK-293T) (PSI 1-6); higher = more stable
# Details: c terminus: a fixed tail appended
# 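Also: lentivirally expressed fusions sorted by FACS into six bins by GFP to DsRed ratio, PSI derived from sequencing read proportions per bin multiplied by bin number.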
row,Variant,protein stability index
1,QKPLCASDGRTFLSRCEFQRAKCF [K24F],1.92
2,QKPLCASDGRTFLSRCEFQRAKCH [K24H],2.76
3,QKPLCASDGRTFLSRCEFQRPKCK [A21P],3.98
4,QKPLCASDGRTFLSRCEFQRHKCK [A21H],2.7
5,QKPLCASDGRTFLSRCEFQRSKCK [A21S],3.14
6,QKPLCASDGRTFLSRCEFQRMKCK [A21M],2.88
7,QKPLCASDGRTFLSRCEFQRRKCK [A21R],3.18
8,QKPLCASDGRTFLSRCEFQRWKCK [A21W],1.85
9,QKPLCASDGRTFLSRCEFQRNKCK [A21N],2.68
10,QKPLCASDGRTFLSRCEFQRFKCK [A21F],2.44
11,QKPLCASDGRTFLSRCEFQREKCK [A21E],3.1
12,QKPLCASDGRTFLSRCEFQRVKCK [A21V],2.96
13,QKPLCASDGRTFLSRCEFQRGKCK [A21G],3.68
14,QKPLCASDGRTFLSRCEFQRYKCK [A21Y],2.58
15,QKPLCASDGRTFLSRCEFQRCKCK [A21C],3.48
16,QKPLCASDGRTFLSRCEFQRTKCK [A21T],3.4
17,QKPLCASDGRTFLSRCEFQRQKCK [A21Q],3.24
18,QKPLCASDGRTFLSRCEFQRDKCK [A21D],3.17
19,QKPLCASDGRTFLSRCEFQRIKCK [A21I],3.14
20,QKPLCASDGRTFLSRCEFQRLKCK [A21L],2.48
21,QKPLCASDGRTFLSRCEFQRKKCK [A21K],3.9
22,QKPLCASDGRTFLSRCEFQGAKCK [R20G],3.58
23,QKPLCASDGRTFLSRCEFQDAKCK [R20D],4.16
24,QKPLCASDGRTFLSRCEFQWAKCK [R20W],2.4

row,Variant,protein stability index
1,QKPLCASDGRTFLSRCEFQAAKCK [R20A],3.14
2,QKPLCASDGRTFLSRCEFQTAKCK [R20T],3.83
3,QKPLCASDGRTFLSRCEFQLAKCK [R20L],3.01
4,QKPLCASDGRTFLSRCEFQQAKCK [R20Q],3.52
5,QKPLCASDGRTFLSRCEFQIAKCK [R20I],3.39
6,QKPLCASDGRTFLSRCEFQFAKCK [R20F],2.29
7,QKPLCASDGRTFLSRCEFQYAKCK [R20Y],2.62
8,QKPLCASDGRTFLSRCEFQHAKCK [R20H],2.77
9,QKPLCASDGRTFLSRCEFQPAKCK [R20P],3.61
10,QKPLCASDGRTFLSRCEFQKAKCK [R20K],3.47
11,QKPLCASDGRTFLSRCEFQVAKCK [R20V],2.9
12,QKPLCASDGRTFLSRCEFQNAKCK [R20N],3.1
13,QKPLCASDGRTFLSRCEFQCAKCK [R20C],3.45
14,QKPLCASDGRTFLSRCEFQSAKCK [R20S],3.19
15,QKPLCASDGRTFLSRCEFQEAKCK [R20E],3.45
16,QKPLCASDGRTFLSRCEFQMAKCK [R20M],3.57
17,QKPLCASDGRTFLSRCEIQRAKCK [F18I],4.24
18,QKPLCASDGRTFLSRCESQRAKCK [F18S],3.82
19,QKPLCASDGRTFLSRCEHQRAKCK [F18H],4.32
20,QKPLCASDGRTFLSRCEGQRAKCK [F18G],4.44
21,QKPLCASDGRTFLSRCEEQRAKCK [F18E],4.73
22,QKPLCASDGRTFLSRCEYQRAKCK [F18Y],2.21
23,QKPLCASDGRTFLSRCECQRAKCK [F18C],3.56
24,QKPLCASDGRTFLSRCEDQRAKCK [F18D],4.12

row,Variant,protein stability index
1,QKPLCASDGRTFLSRCEVQRAKCK [F18V],4.01
2,QKPLCASDGRTFLSRCENQRAKCK [F18N],4.19
3,QKPLCASDGRTFLSRCEKQRAKCK [F18K],4.62
4,QKPLCASDGRTFLSRCERQRAKCK [F18R],4.37
5,QKPLCASDGRTFLSRCEWQRAKCK [F18W],1.6
6,QKPLCASDGRTFLSRCEPQRAKCK [F18P],3.49
7,QKPLCASDGRTFLSRCEAQRAKCK [F18A],3.93
8,QKPLCASDGRTFLSRCEMQRAKCK [F18M],3.67
9,QKPLCASDGRTFLSRCEFQRASCK [K22S],3.06
10,QKPLCASDGRTFLSRCEFQRACCK [K22C],2.72
11,QKPLCASDGRTFLSRCEFQRAYCK [K22Y],2.46
12,QKPLCASDGRTFLSRCEFQRAWCK [K22W],2.86
13,QKPLCASDGRTFLSRCEFQRAICK [K22I],2.27
14,QKPLCASDGRTFLSRCEFQRAECK [K22E],2.76
15,QKPLCASDGRTFLSRCEFQRAHCK [K22H],2.31
16,QKPLCASDGRTFLSRCEFQRADCK [K22D],2.9
17,QKPLCASDGRTFLSRCEFQRARCK [K22R],2.95
18,QKPLCASDGRTFLSRCEFQRAFCK [K22F],2.65
19,QKPLCASDGRTFLSRCEFQRAQCK [K22Q],3
20,QKPLCASDGRTFLSRCEFQRAACK [K22A],3.02
21,QKPLCASDGRTFLSRCEFQRAGCK [K22G],3.29
22,QKPLCASDGRTFLSRCEFQRALCK [K22L],2.11
23,QKPLCASDGRTFLSRCEFQRAVCK [K22V],2.86
24,QKPLCASDGRTFLSRCEFQRANCK [K22N],3.07

row,Variant,protein stability index
1,QKPLCASDGRTFLSRCEFQRATCK [K22T],2.71
2,QKPLCASDGRTFLSRCEFQRAMCK [K22M],2.36
3,QKPLCASDGRTFLSRCEFQRAPCK [K22P],2.88
4,QKPLCASDGRTFLSRCTFQRAKCK [E17T],3.3
5,QKPLCASDGRTFLSRCRFQRAKCK [E17R],3.5
6,QKPLCASDGRTFLSRCNFQRAKCK [E17N],3.29
7,QKPLCASDGRTFLSRCDFQRAKCK [E17D],2.11
8,QKPLCASDGRTFLSRCKFQRAKCK [E17K],3.19
9,QKPLCASDGRTFLSRCVFQRAKCK [E17V],2.82
10,QKPLCASDGRTFLSRCCFQRAKCK [E17C],2.74
11,QKPLCASDGRTFLSRCPFQRAKCK [E17P],3.07
12,QKPLCASDGRTFLSRCMFQRAKCK [E17M],2.6
13,QKPLCASDGRTFLSRCLFQRAKCK [E17L],2.29
14,QKPLCASDGRTFLSRCIFQRAKCK [E17I],3.15
15,QKPLCASDGRTFLSRCYFQRAKCK [E17Y],3.05
16,QKPLCASDGRTFLSRCQFQRAKCK [E17Q],4.38
17,QKPLCASDGRTFLSRCWFQRAKCK [E17W],1.54
18,QKPLCASDGRTFLSRCHFQRAKCK [E17H],2.84
19,QKPLCASDGRTFLSRCFFQRAKCK [E17F],2.32
20,QKPLCASDGRTFLSRCAFQRAKCK [E17A],3.31
21,QKPLCASDGRTFLSRCSFQRAKCK [E17S],2.68
22,QKPLCASDGRTFLSRCGFQRAKCK [E17G],2.26
